Numbering of substitutions follows the chain as printed.
B1: IR-003 antibody (antibody, V domains shown)
VH: QVTLKESGPGILQPSQTLSLTCSFSGFSLSTSGMGVSWIRQPSGKGLEWLAHIYWDDDKRYNPSLKSRLTISKDTSSNQVFLKITSVDTADTATYYCARRGEVRRRGYYAMDYWGQGTSVTVSS
VL: DVVMTQTPLSLPVSLGDQASISCRSSQSLVHSNGNTYLHWYLQKPGQSPKLLIYKVSNRFSGVPDRFSGSGSGTDFTLKISRVEAEDLGVYFCSQSTHVPLTFGAGTKLELK
notes: Mouse monoclonal from a hybridoma (BALB/c); constant regions are not
B2: IR-130 antibody (antibody, V domains shown)
VH: EVKLVESGGGLVQPGGSLKLSCATSGFTFSDYYMYWVRQTPEKRLEWVAYISNGGGSTYYPDTVKGRFTISRDNAKNTLYLQMSRLKSEDTAMYYCARGTSYGSSLHYYAMDYWGQGTSVTVSS
VL: B1 VL
notes: Mouse monoclonal from a hybridoma
B3: IR-148 antibody (antibody, V domains shown)
VH: DVQLVESGGGLVQPGGSRKLSCAASGFTFSSFGMHWVRQAPEKGLEWVAYISSGSSTIYYADTVKGRFTISRDNPKNTLFLQMTSLRSEDTAMYYCARDYYGMDYWGQGTSVTVSS
VL: B1 VL
notes: as for B2
B4: IR-103 antibody (antibody, V domains shown)
VH: DVQLVESGGGLVQPGGSRKLSCAASGFTFSSFGMHWVRQAPEKGLEWVAYISSGSSTIYYADTVKGRFTISRDNPKNTLFLQMTSLRSEDTAMYYCARSPLLRLQGLAYWGQGTLVTVSA
VL: B1 VL with V3L, L29I, H39E, F92Y, S94F, S96G, T97S, L101P, A105G, L111I
notes: as for B2
B5: IR-091 antibody (antibody, V domains shown)
VH: QVTLKESGPGILKPSQTLSLTCSFSGFSLSTSGMGVGWIRQPSGKGLEWLAHIWWDDDKYYNPSLKSQLTISKDTSRNQVFLKITSVDTADTATYYCARRGLRRGDYFDYWGQGTTLTVSS
VL: B1 VL with V3L, L29I, H39E, F92Y, S94F, S96G, T97S
notes: as for B2
B6: IR-099 antibody (antibody, V domains shown)
VH: DVQLVESGGGLVQPGGSRKLSCAASGFTFSRFGMHWVRQAPEKGLEWVAYISSGRSTIYYADTVKGRFTISRDNPKNTLFLQMTSLRSEDTAMYYCARGGGNYVGAMDYWGQGTSVTVSS
VL: DAVMTQTPLSLPVSLGDQASISCRSSQSLENSNGNTYLNWYLQKPGQSPQLLIYRVSNRFSGVLDRFSGSGSGTDFTLKISRVEAEDLGVYFCLQVTHVPPTFGGGTKLEIK
notes: as for B2

molecular target: T1, A beta 1-40 oligomer (synthetic A beta1-40, HCl form, 0.1 mg/ml in PBS, incubated at 37 degrees C for one … (UniProt P05067 672-711)); experiment: SPR, Biacore 3000, A beta oligomer on CM5 chip, antibody as analyte
T1 construct: domain: A beta 1-40; Non-fibrous assembly of many copies of the same peptide; also called A beta oligomer
Procedure: The analysis was carried out by Surface Plasmon Resonance (SPR) using Biacore 3000 (GE Healthcare Sciences).

Row | Kd | koff | kon | Binder
1 | 24.5 nM | 0.00232 s⁻¹ | 94800 M⁻¹ s⁻¹ | B1
2 | 667 nM | 0.11 s⁻¹ | 165000 M⁻¹ s⁻¹ | B2
3 | 38.6 nM | 0.000931 s⁻¹ | 24100 M⁻¹ s⁻¹ | B3
4 | 43.9 nM | 0.00571 s⁻¹ | 130000 M⁻¹ s⁻¹ | B4
5 | 7.37 nM | 0.00188 s⁻¹ | 255000 M⁻¹ s⁻¹ | B5
6 | 9.3 nM | 0.00252 s⁻¹ | 271000 M⁻¹ s⁻¹ | B6

Reference: patent US20120156193A1 (IMMUNAS PHARMA, published 2012)
